The nature of this series: soluble fraction after stress (log2 fold change); higher = more stays soluble; pooled small domains, quantitative proteomics. The following applies: stress: 50 degC. In short, it runs like this:
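The measure of aggregation propensity here is the base-two logarithm of the fold change in the soluble amount of each protein after stress. A higher value means more of that protein stays in solution. Stress was applied at 50°C to pooled libraries of small protein domains, read out by high-throughput quantitative proteomics.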

On to “HMPVFYVTGNRVNFRAGPSTGDRVIGSLSQGAAVEVLGPTDDAWINIRDSDGRVGYMSAQFLSQ”, for which the “soluble fraction (log2)” value was -0.069.
With “HMSVTVPDVKRMQAEDAKALLSRYRLRSEVIDSVYVDNIPRGAVVEQIPRENSSVKENRIVFLTINSN”, the “soluble fraction (log2)” value was -0.363.
Under “HMFLTPLEETRLAIEEVVIAKNIAIDLFPRESAIRKQQHELIYHYHLKGLTVGTEKNKRLRIFPRGY” stands -0.000251; under “HMVDIIMDLLEAVAQARPADAFIKSLHIQYQERGGLSKKQLQGLYGKAAKTAGIPPGKLATLEAIILKRP”, -1.38.
For the sequence “HMKMPNGYGSITKLSGKRRKPWRVRKTAGWELDAKTQKLKQTYINIGYYETRADAMSALVSYNEDP”, the “soluble fraction (log2)” value was -0.898.
Under “HMGMNKEHFIIELKIYLKALNPKDQAIILAKYKALFDARVAEGETEEQVAKSLGKPRVIAEEILKEQGIE” stands -0.236.
On to “HMNSLQLGSRGPTVSALQAKLNTMLVPSPRLVADGSFGPKTAQAVKAFQQMKRLVADGVVGPKTAAALGLS”, for which the “soluble fraction (log2)” value was -0.00877.
Under “HMYAHLGKNLEVVINKALAQEDPEKKAGFAHHIAYYMKLAYSNWHKELVHDDAIRSELDTITGGELEFSN” stands 0.499.
Under “HMGDPSSERNIQKSIFILIGEKALSVQDISRSLGMPNDIIDKALISGVERNLWLSSDKGEYYL” stands -1.1.
The figure for “HMPARTANEEAIRKYLLNHDSITRKETQALLKTGQSAAGRILKEMVENGWLARIGNGRSTGYELR” is -0.034.
For “HMTSLAGIERFLASGAIAGVGEAMAHRLVQKFGKETLEIIEKKPSRLTEVAGVGKKTAAKIHASYMEK”, the “soluble fraction (log2)” value was -0.106.
The figure for “HMIGTPLSEWQKDAPEEITRDQIAELVILKFVTVEQLALASDAQLQRIGMGGVGLRERAKLYLNRK” is -1.15; for “HMVSVPDIGEKLPDFTGTPKRLLTPLLNKNDVNIIIKGDGWVVSQKPPAGTPVTKGMTIEFTL” it is -0.208; for “HMFGELTPDTAKRFLLTAREQEMASLIAQGLTNKEIAFRLGISEATVRTHIYNLFQKVGVQSRIELLNVLH” it is -0.289.
Under “HMYFNTADLKADSIHYGSTEQSVIKILGEPEYRETFVDNNVSYELFSYKGNLLLSFVENSLVSL” stands 0.0896; under “HMDSPVEEWANRGLAYDPSLVTETMAKLYAKQGQIGLARKAFKRLALIYPEKSVYFAFQLKKLSNN”, -1.63.
The figure for “HMKSATGKIPDFISDLPVDEFVRELIVTNAFQPLNKFKEVQNHIGSALKIYVDELTEKRANGTVHILYSHK” is 0.077; for “HMSDRFLDQEGVALSTLRPSGTVVLDSGEHLDVVTRGEFIEQGERVKVIKAESTWYVVEQIN” it is -0.268; for “HMSTRKAFVNGDGVRLRSGPGTNHSIRASLTKGQTVFVTGTKDGWASVSVQGGASGWVSADLLKYE” it is 0.232.
Consider “HMIESLKGILHKKDPTIAIIDVGGVRLSVNITLSTYEKLEEINSSIELLTYFNVREDAMELYG”, for which the “soluble fraction (log2)” value is -0.157.
The figure for “HMDAIAYLGSRLKEIRLKSGLSLREIARQLDVSPSFISQIENGKSQPSVATLYAFAKLLNVPVDVLFQPS” is -1.05.
The figure for “HMESYDSEIKEVLDLAGKGRWEEAQTKADALREMAPNNSLVERLHGWVLQAAHQRREQALENDIRE” is 0.286; for “HMADKSLLELPGLDGDKVSALVTAGVRNVNDLADLATDELVEKTGFDEKTAADLIIAARAVVY” it is 0.331.
In the case of “HMTVKVPDLRGKTLAEMQRILDDAGLKYEINDSTFSRTAIPGTVREVIPAPGSEVKLGRILFIAINGF”, the “soluble fraction (log2)” value was -0.914.
As to “HMQNELAEARSQLAERKNIDQAKLILMKKRNISEPEAYKLLRSHAMQTNRRVAEVAESIITAESLLG”, the “soluble fraction (log2)” value came out at 0.0394.
Under “HMWNPVLVVRGDFPKDLATTLLKMIFAQKEALNPHILFQNLLRTDNITFRESYPYHSASKTMFRF” stands -0.148; under “HMTGENWAERSRQLAAAGLLVLGKEAQEKIASLPNLIPLIEAAAASDTRLLNAQTIDELLSFVPTEETI”, -0.05; under “HMGQELRFVIQDHEAGIRLDHYLTQQVEGYSRSHLRKLMDQGLITVDGSYRKAGYRLNVGDVIHVVIPPTR”, -0.443.
Under “HMRMTPRQALDDLIREREETYAAVSRLLGRNTAYIQQYIKRGTPARLDQSDIAQLALHFDVPAKLLGGKE” stands -0.943.
Consider “HMDSEKVLTNLKEELVLQLSNIEPYGYVPSQYWYSKVQRVQSVQELGKYVDGDLEAFVMKYAEDWESQK”, for which the “soluble fraction (log2)” value is -0.191.
Under “HMIIIMKKSATNSEVRKVIERAEKEGLTVQVNQLEKQQVLGLVGDTRLIQDVAFLRYEGVENVERI” stands -0.776.
The figure for “HMTRTISKVAKELAINIETVRFYERRGLIEQPPKPELGYRHYPDETVNRIRFIKRAQELGFTLEEIANLLS” is -1.75; for “HMGRRSKAMLSSALDAVPGLGEMRRKALISQFGSLKKLRGATPEEIAAVPGIGPKLAAAVHEAVSG” it is 0.0505; for “HMNESADMPDVVNMSLEAAKSQLEGMGLKVKVENVEDDSVEENHVIKTSPVSGEKVKLGTTVTLTVSKGR” it is -0.0231.
The figure for “HMPATIEGIRLYLSSGLIKGVGEEMASRIVKAFGTDTIRVLDEEPERLLKVRGVGKKSLDRIRTSWAEH” is -0.386; for “HMNTWVEIFRAEDQGQIRDASLVLLAVKVAHRVDMNSSSAPWSLMVPAQDQQRAHHELTTYWQENAH” it is -1.43; for “HMKLIRLGKAAGELNVGMSTLAEFLQSKGHSVDPNPNTKLTPEQYALLRMEFAADQTLKKLTKQP” it is 0.198.
With “HMDSYADVLSDYRGKYKTNTISGLKGLRDKIREDMLAAADSLDFEKAALLRDEMNDLNKKIELKEKT”, the “soluble fraction (log2)” value came out at 0.505.
The figure for “HMSEIKDRLREARRNKGLSQAGLSKLLGVSQASIAAIESGRNKRPTNLVSIAKALDVSPYWLETGK” is -0.124.
Under “HMYDRIKLLKLREKRGLTQYELAEKAGISVVTLNKIETSDMAKPFASTLKKIALALGVGIEELS” stands -0.121.
Turning to “HMNLTEIGQRIRDRREELGLSQDRLAKLGGLPRVTINQLETGSIGDLGVSKLLNLLDLLGLTLDA”, the “soluble fraction (log2)” value is -0.108.
The figure for “HMNQKTQMTKQILAESLKKLMLHHSFEKITIKDITDAAGFIRPTFYNHFKDKYDLVEWIFTEEI” is -0.364; for “HMVVLPPTEDAPEWAQVFDRLGRPESADGYKLPVPEGADPAFAKLASAKMHELGLSAKQGAALAAWWNEQA” it is 0.108; for “HMLKPQQTQRIYAMAARLGVLESGNKNDMLHTIVYRLTQKESIRSLNENEYKTVVSELAERLKL” it is -0.97.
Under “HMDAKNNPQVMAQIRAILTAKGLSEDEVKTRLKTKNIDVDKMTDQEIIAQRPAIEAIINEMEQEKKQKMG” stands 0.252; under “HMGAVPKNYFPAVEKGLQDSVQKGLLAGYPVVGVKAILYDGSYHPVDSSEMAFKTATIQAFKKGFMEA”, 0.2.
Turning to “HMETGGLAQEAERELALLQEQIAHHEALYRKGTPEISDGAFDELFDRYQELADSLGVPADERIDRA”, the “soluble fraction (log2)” value is -0.0378.
The figure for “HMTIPSYAEAVRYVRRQPRINTSTLADGLGIRWSLALDYLERMARSGVVGAIEDDGWWPVAR” is -0.71; for “HMSLTEDELFHALTIYANREGINIGATELKYLLTHYARNLGKLIELINQVSQAATMQKKPITIPLIKHS” it is -0.428; for “HMPFNREYWIEQLLKEVGLMGTPYAELDKHEVELDSPTGRASGFKVNAKTYVDQQLLFIENEYNNQPE” it is -0.153.

Source of the values: the domain aggregation screens of Martell et al. (2025).
